Laboratory results from patent US20040258663A1, “Compositions and methods for enhanced mucosal delivery of interferon alpha” (Nastech Pharmaceutical Company Inc., priority 2003, published 2004).

What was measured:
[1] = system: ciliary function in epithelial cell cultures; conditions: cited from earlier work
[2] = system: EpiAirway™ Cell Membrane (mucosal epithelial cell layer)
Description: (§1) The epithelial cells are grown on porous membrane-bottomed cell culture inserts at an air-liquid interface, which results in differentiation of the cells to a highly polarized morphology. […] The inserts have a diameter of 0.875 cm, providing a surface area of 0.6 cm^2.
(§2) A. On arrival, the units are placed onto sterile supports in 6-well microplates. Each well receives 5 mL of proprietary culture medium. This DMEM-based medium is serum free but is supplemented with epidermal growth factor and other factors. The medium is always tested for endogenous levels of any cytokine or growth factor which is being considered for intranasal delivery, but has been free of all cytokines and factors studied to date except insulin. The 5 mL volume is just sufficient to provide contact to the bottoms of the units on their stands, but the apical surface of the epithelium is allowed to remain in direct contact with air. Sterile tweezers are used in this step and in all subsequent steps involving transfer of units to liquid-containing wells to ensure that no air is trapped between the bottoms of the units and the medium.
(§3) B. The units in their plates are maintained at 37° C. in an incubator in an atmosphere of 5% CO2 in air for 24 hours. At the end of this time the medium is replaced with fresh medium and the units are returned to the incubator for another 24 hours.
(§4) A. A “kit” of 24 EpiAirway units can routinely be employed for evaluating five different formulations, each of which is applied to quadruplicate wells. Each well is employed for determination of permeation kinetics (4 time points), transepithelial resistance, mitochondrial reductase activity as measured by MTT reduction, and cytolysis as measured by release of LDH. An additional set of wells is employed as controls, which are sham treated during determination of permeation kinetics, but are otherwise handled identically to the test sample-containing units for determinations of transepithelial resistance and viability.
(§5) B. In all experiments, the mucosal delivery formulation to be studied is applied to the apical surface of each unit in a volume of 100 μL, which is sufficient to cover the entire apical surface. An appropriate volume of the test formulation at the concentration applied to the apical surface (no more than 100 μL is generally needed) is set aside for subsequent determination of concentration of the active material by ELISA or other designated assay.
(§6) D. In order to minimize potential sources of error and avoid any formation of concentration gradients, the units are transferred from one 0.9 mL-containing well to another at each time point in the study. These transfers are made at the following time points, based on a zero time at which the 100 αL volume of test material was applied to the apical surface: 15 minutes, 30 minutes, 60 minutes, and 120 minutes.
(§7) E. In between time points the units in their plates are kept in the 37° C. incubator. Plates containing 0.9 mL medium per well are also maintained in the incubator so that minimal change in temperature occurs during the brief periods when the plates are removed and the units are transferred from one well to another using sterile forceps.

[3] = system: EpiAirway™ Cell Membrane (mucosal epithelial cell layer); assay: Permeation kinetics of interferon-α-2b measured by ELISA assay; conditions: Table 9
Description: as §1, §2, §3, §4, §5, §6, §7

EpiAirway cell membrane = assay type: cell-based; conditions: Table 11
Source text: While measurement of mitochondrial reductase activity by MTT reduction is a sensitive probe of cell viability, the assay necessarily destroys the cells and therefore can be carried out only at the end of each study. When cells undergo necrotic lysis, their cytotosolic contents are spilled into the surrounding medium, and cytosolic enzymes such as lactic dehydrogenase (LDH) can be detected in this medium. An assay for LDH in the medium can be performed on samples of medium removed at each time point of the two-hour determination of permeation kinetics.
A. The recommended LDH assay for evaluating cytolysis of the EpiAirway units is based on conversion of lactate to pyruvate with generation of NADH from NAD. The NADH is then reoxidized along with simultaneous reduction of the tetrazolium salt INT, catalyzed by a crude “diaphorase” preparation. The formazan formed from reduction of INT is soluble, so that the entire assay for LDH activity can be carried out in a homogenous aqueous medium containing lactate, NAD, diaphorase, and INT.
B. The assay for LDH activity is carried out on 50 μL aliquots from samples of “supernatant” medium surrounding an EpiAirway unit and collected at each time point. These samples were either stored for no longer than 24 h in the refrigerator or were thawed after being frozen within a few hours after collection. Each EpiAirway unit generates samples of supernatant medium collected at 15 min, 30 min, 1 h, and 2 h after application of the test material. The aliquots are all transferred to a 96 well microplate.
C. A 50 μL aliquot of medium which had not been exposed to a unit serves as a “blank” or negative control of 0% cytotoxicity. […] Thus, within experimental error, these sham-treated units show no cytolysis of the epithelial cells over the time course of the permeation kinetics measurements.
D. To prepare a sample of supernatant medium reflecting the level of LDH released after 100% of the cells in a unit have lysed, a unit which had not been subjected to any prior manipulations is added to a well of a 6-well microplate containing 0.9 mL of medium as in the protocol for determination of permeation kinetics, the plate containing the unit is frozen at −80° C., and the contents of the well are then allowed to thaw. This freeze-thaw cycle effectively lyses the cells and releases their cytosolic contents, including LDH, into the supernatant medium. A 50 μL aliquot of the medium from the frozen and thawed cells is added to the 96-well plate as a positive control reflecting 100% cytotoxicity.
E. To each well containing an aliquot of supernatant medium, a 50 μL aliquot of the LDH assay reagent is added. The plate is then incubated for 30 minutes in the dark.
F. The reactions are terminated by addition of a “stop” solution of 1 M acetic acid, and within one hour of addition of the stop solution, the absorbance of the plate is determined at 490 nm.
G. Computation of percent cytolysis is based on the assumption of a linear relationship between absorbance and cytolysis, with the absorbance obtained from the medium alone serving as a reference for 0% cytolysis and the absorbance obtained from the medium surrounding a frozen and thawed unit serving as a reference for 100% cytolysis.

[4] = Bioavailability of nasal interferon-α in healthy male volunteers versus subcutaneous administration; assay type: in vivo, human; conditions: for Cmax: 3 MIU, SC, human plasma
Source text: The present example provides a non-blinded study to determine the uptake of intranasally administered interferon-α in combination with one or more intranasal delivery-enhancing agents into the blood serum in healthy male volunteers.
Twelve healthy male subjects are enrolled in the step and each receives all 3 test product in a cross over fashion.
Each receive all 3 test products.
The protocol involved three doses of the same test product in a dose escalation manner.
The absorption and tolerance results of all products tested were tabulated and analyzed for Cmax, Tmax, and bioavailability (Area under concentration curve, AUC).
For nasal and injectable preparations in Protocols 1 and 2, 7 mL blood samples were drawn at 0 (prior to dose), 10, 20, 30, 45, 60, 75, 90, 120, 180, 240, 360, and 480 minutes post dosing into appropriate vacutainers.
The blood samples were centrifuged and the serum assayed for drug concentration using ELISA Method.
This is a single dose, parallel group study to evaluate absorption, tolerance and pharmacodynamic parameters of Interferon-α-2b by two routes of administration: subcutaneous and intranasally. The study involves twelve healthy male subjects randomly assigned six per group (6 subjects subcutaneous and 6 intranasal). The objective of the study is to evaluate the absorption, tolerance and pharmacodynamic parameters of intranasal administration of Interferon-α-2b by formulations of the present invention versus subcutaneous administration of interferon-α-2b (IntronA®, Schering, Corp.).
When receiving the intranasal dosage formulations, the subjects were seated and instructed to gently blow their nose before dosing. During dosing, the other nostril must be closed with the forefinger. They were also instructed to tilt their heads slightly back for dosing and to return their heads to an upright position while sniffing in gently immediately following dosing. Subjects must avoid additional sniffing and must remain in a seated position with head upright for 5 minutes after dosing. […]
Serum drug concentrations were measured using a suitable analytical method. […]

Row | Substance | concentration producing ciliostasis / inhibiting ciliary motility [1] [µg/mL] | Fold Increase [2] [fold] | % Permeated at Time-intervals (min), 0 min ([3]; 0 min) [%] | % Permeated at Time-intervals (min), 15 min ([3]; 15 min) [%] | % Permeated at Time-intervals (min), 30 min ([3]; 30 min) [%] | % Permeated at Time-intervals (min), 60 min ([3]; 60 min) [%] | % Permeated at Time-intervals (min), 120 min ([3]; 120 min) [%] | % Dead Cells at Time-Intervals (min), 0 (EpiAirway cell membrane; 0 min) [%] | % Dead Cells at Time-Intervals (min), 15 (EpiAirway cell membrane; 15 min) [%] | % Dead Cells at Time-Intervals (min), 30 (EpiAirway cell membrane; 30 min) [%] | % Dead Cells at Time-Intervals (min), 60 (EpiAirway cell membrane; 60 min) [%] | % Dead Cells at Time-Intervals (min), 120 (EpiAirway cell membrane; 120 min) [%] | Cmax ([4]; 0 to 3 hour) [IU/mL] | Cmax ([4]; 0 to 4 hour) [IU/mL] | maximum concentration of interferon-α in the blood serum (Cmax) ([4]; subcutaneous, 3 MIU dose, at 3 hours post dosing) [IU/mL]
1 | 2-alkyl-4-hydroxyquinolines [pyo compound] | 50 | – | – | – | – | – | – | – | – | – | – | – | – | – | –
2 | interferon α-2b [Intron A] | – | 1 | 0 | 0.000 | 0.003 | 0.011 | 0.022 | 0 | 0.84 | 0.93 | 1.65 | 4.27 | 4.0 | 6.8 | 4.0
